Laboratory results: US20120122765A1, “COMPOUNDS AND RELATED METHODS FOR MANIPULATING PARP-1-DEPENDENT CELL DEATH” (priority 2010, published 2012)
Residue numbers refer to the chain shown, from its start. “Also recorded” adds a separate entry of the source. Where a SMILES comes first, the peptide text is derived from it. The star is where a group is joined. Cbz = O=C(OCc1ccccc1)*; CH2F = FC*

How the values were obtained:
Hq MEFs = test: MNNG cytotoxicity in Hq MEFs; assay type: cell-based, mouse; settings: 24 hours after MNNG 500 μM for 15 min
Procedure: Further, the effect WT-AIF-Flag or Pbm-AIF-Flag on Hq MEF cell viability was determined 24 hours after MNNG (500 μM for 15 min) cytotoxicity with and without zVAD (100 μM), and the results of three trials is reported in FIG. 17B.

Hq cortical neurons = test: NMDA excitotoxicity in Hq cortical neurons; assay type: cell-based, mouse
Procedure: HQ cortical neuron cells were transduced with lentivirus carrying WT-AIF-Flag or Pbm-AIF-Flag. Non-transduced neurons and GFP-lentivirus infected cells were used as negative controls. […] In those photos, blue indicates Hoechst 33342 staining and red indicates propidium iodide staining. […] The cytotoxicity in these Hq cortical neurons was measured at 24 hours, 36 hours, and 48 hours after NMDA (500 μM for 5 min) treatment, and the data for this is reported in the graph of FIG. 18B.

PAR [1] = test: nitrocellulose saturation binding experiments; settings: result in words
Description: Applicants thereafter repeated the experiments using both wild type and mutant AIFm peptides spanning only amino acids 567-592 instead of full length AIFm and obtained results consistent with those using full-length AIF. […] The double amino acid mutant Dm (corresponding to only amino acids 567-592 of AIF-Dm so as to consist of SEQ. ID NO. 16) bound PAR. […] Thus, it is preferred in embodiments of the invention when conducting genetic manipulations to convert at least three target basic amino acids in the PBM to hydrophobic amino acids.
The PAR polymer binding properties of the mutant Pbm-AIF was then measured using full-length recombinant His-WT-AIF and His tagged Pbm-AIF (“His-Pbm-AIF”) via a series of nitrocellulose saturation binding experiments. Similar experiments were also conducted for the shorter peptides Dm and Tm in comparison to WT. FIG. 10B through FIG. 10D comprise charts reporting data from these various experiments. With regard to the shorter peptides, Applicants determined that the binding affinity constant (“Kd”) and maximum binding capacity (“Bmax”) of these AIF mimetic peptides and the results are reported in the chart of FIG. 10B. […] FIG. 10D comprises a Scatchard plot (95% confidence interval) of the results.

[2] = NADH oxidase activity of AIF; assay type: biochemical; settings: compared to His-WT-AIF
Procedure: Unless otherwise set forth herein, the determination of NADH Oxidase Activity and FAD binding of AIF in the various examples below was performed using the following materials and procedures. AIF's NADH oxidase activity was determined as previously described by M. Miramar et al. (J Biol Chem, 2001). In brief, the NADH oxidase activity was measured at room temperature in substrate solution containing 250 μM NADH in air-saturated 50 mM Tris-HCl, pH 8.0. The decrease in absorbance at OD340 nm was monitored right after the addition of recombinant His-tagged AIF into the substrate solution. In situ redox activity of recombinant His-tagged AIF was performed as previously described by J. Gagne et al. (Nucleic Acids Res, 2008). […] FAD binding to AIF was monitored at 13 μM concentration of His-tagged AIF by wave length scanning ranging from 250-800 nm using Beckman Coulter DU800 UV/Vis spectrophotometer.
Independent of its role in parthanatos, AIF has NADH (the reduced form of nicotinamide adenine dinucleotide) oxidase activity, binds to FAD (flavin adenine dinucleotide) and DNA, and causes nuclear condensation. To determine whether the triple amino acid mutation found in Pbm-AIF interferes with these properties, Applicants assessed the NADH oxidase activity, FAD-binding capacity, and DNA-binding capacity of full-length His-WT-AIF and His-Pbm-AIF. […]

[3] = FAD binding by spectrophotometric wave length scanning; settings: His-Pbm-AIF versus His-WT-AIF
Procedure: Unless otherwise set forth herein, the determination of NADH Oxidase Activity and FAD binding of AIF in the various examples below was performed using the following materials and procedures. AIF's NADH oxidase activity was determined as previously described by M. Miramar et al. (J Biol Chem, 2001). In brief, the NADH oxidase activity was measured at room temperature in substrate solution containing 250 μM NADH in air-saturated 50 mM Tris-HCl, pH 8.0. The decrease in absorbance at OD340 nm was monitored right after the addition of recombinant His-tagged AIF into the substrate solution. In situ redox activity of recombinant His-tagged AIF was performed as previously described by J. Gagne et al. (Nucleic Acids Res, 2008). The AIF protein was separated on a 10% native gel and then the gel was briefly washed in distilled water. The gel was equilibrated in 2,2′-Di-p-nitrophenyl-5-5′-diphenyl-3,3′ (3-3′-dimethoxy-4-4′difenilen)tetrazolium chloride (“NBT”) solution for 20 minutes in the dark followed by the addition of 1 mM NADH to NBT solution to reduce NBT. FAD binding to AIF was monitored at 13 μM concentration of His-tagged AIF by wave length scanning ranging from 250-800 nm using Beckman Coulter DU800 UV/Vis spectrophotometer.
FAD binding of His-WT-AIF and His-Pbm-AIF was determined by spectrophotometric wave length scanning of purified proteins. […]

DNA = DNA retardation assay; assay type: binding; settings: DNA (200 ng), 30 minutes
Procedure: AIF binding-mediated DNA mobility retardation was performed as described by H. Cande et al. (Nat Struct Biol, 2002). Recombinant His-tagged AIF (10 μg or 25 μg) was incubated with 1 kb DNA molecular weight marker (obtained from Fermentas) for 30 minutes at room temperature and loaded on 2.5% agarose gel prestained with ethidium bromide (1 μg/ml). Mobility shift was visualized under the Alpha Innotech UV illuminator.
Further, a DNA retardation assay of His-WT-AIF and His-Pbm-AIF was conducted by incubating both with DNA (200 ng) for 30 minutes, using BSA as a negative control.

HeLa cells = test: AIF nuclear translocation in HeLa cells after MNNG; assay type: cell-based; settings: MNNG 50 μM for 15 minutes, confocal image analysis
Procedure: (§1) Unless otherwise set forth herein, immunocytochemistry, immunohistochemistry and confocal microscopy as referenced in the examples entailed the following materials and procedures. For immunocytochemistry, cells were fixed 2 hours after treatment with 4% paraformaldehyde, permeabilized with 0.05% Triton X-100, and blocked with 3% bovine serum albumin in PBS. AIF was visualized by 2 μg/ml mouse anti-Flag/Cyt AffiniPure Donkey Anti-Mouse IgG or rabbit anti-AIF/Cy3 AffiniPure Donkey Anti-Rabbit IgG. Immunohistochemistry was performed using the antibody against Flag. Immunofluorescence analysis thereafter was carried out by using a LSM510 confocal laser scanning microscope (obtained from Carl Zeiss Microlmaging) as described by H. Wang et al. (J. Neurosci, 2004).

[4] = tested on: mitochondria of HeLa cells; test: in vitro AIF release from mitochondria of HeLa cells; settings: purified PAR, transiently transfected HeLa cells
Procedure: (§2) Unless otherwise set forth herein, mitochondria isolation and in vitro AIF release assays as referenced in the examples below were performed using the following materials and procedures. Mitochondria were prepared from HeLa cells and cortical neurons as follows by harvesting cells, re-suspending them in 2 ml MIB buffer (10 mM HEPES, pH 7.4, 300 mM sucrose, 1 mM EGTA), and homogenizing by 60 strokes with B type Dounce homogenizer. Nuclei were pelleted at 750×g for 5 minutes and mitochondria were spun down at 3,000×g for 10 minutes. Isolated mitochondria were dissolved in a minimum volume of sucrose buffer (10 mM HEPES, pH 7.4, 300 mM sucrose) and protein concentration was adjusted to 2 mg/ml. […] In vitro AIF release was carried out at room temperature for 30 minutes in assay buffer (20 mM HEPES, pH 7.4, 125 mM KCl, 2 mM K2HPO4, 4 mM MgCl2, 5 mM succinate, 2 mM rotenone, 3 μM ATP and 1 μM ADP) in the presence of 100 nM PAR and 1 mg/ml isolated mitochondria. […]
(§3) Next, Applicants used Hq cortical neurons transduced with WT-AIF-Flag or Pbm-AIF-Flag lentiviruses to determine whether PAR plays a direct role in mitochondrial AIF release. […] Three days after lentivirus infection, mitochondria were isolated and exposed to purified PAR to elicit in vitro AIF release by incubation with PAR for 30 minutes, and the levels of AIF were determined in the mitochondria and in the supernatant.

Hq mice [5] = test: NMDA excitotoxicity in hippocampal CA1 region of Hq mice; assay type: in vivo, mouse; settings: AAV2 in CA1, 60 hours after NMDA
Procedure: Seven days following virus injection, Applicants injected NMDA into the right CA1 region and saline into the left CA1 region, and then assessed CA1 lesion volume 60 hours later. […] FIG. 20B is an array of six representative Nissl staining photos taken 60 hours post NMDA injection, while FIG. 20C is a graph of the experimental data obtained for lesion volume percentages.

[6] = tested on: Hq mouse cortical neuronal cultures; test: AIF translocation to the nucleus in Hq cortical neurons; assay type: cell-based
Procedure: as §1, with “For immunocytochemistry, cells were fixed 2 hours after treatment with 4% paraformaldehyde, permeabilized with 0.05% Triton X-100, and blocked with 3% bovine serum albumin in PBS.” left out
Again, AIF translocation to the nucleus was monitored two hours after NMDA (500 μM, 5 minutes) treatment sufficient to initiate parthanatos in wild-type cells.

PAR [7] = test: co-immunoprecipitation with PAR in HeLa cells; assay type: cell-based
Procedure: The following experiment was performed to confirm whether AIF in fact binds to PAR in intact cells. Applicants exposed HeLa cells stably transduced with lentivirus C-terminal Flag-tagged mouse wild type AIF (WT-AIF-Flag) to MNNG, a DNA alkylating agent that activates PARP-1 and kills cells primarily through parthanatos. […] FIG. 2A comprises two side by side black and white photos of representative gels obtained by Applicants, showing the impact of MNNG upon these HeLa cells (left photo being HeLa cells without MNNG, and right photo being HeLa cells 2 hours after MNNG treatment at 50 μM for 15 min). […] FIG. 2B is a chart reporting the data regarding the relative intensity of the interaction pre and post MNNG for these experiments (*** indicates p<0.001).

PAR [8] = test: co-immunoprecipitation with PAR in Hq cortical neurons
Procedure: For co-immunoprecipitation, the post-nuclear cell extracts, which is the fraction prepared from whole cell lysates after removing nuclear proteins, were isolated in hypotonic buffer as previously described by S. Andrabi et al., and then incubated overnight with an antibody against PAR in the presence of protein A/G Sepharose (obtained from Santa Cruz Biotechnology, of Santa Cruz, Calif.), followed by immunoblot analysis with mouse anti-Flag antibody (obtained from Sigma). The proteins were separated on denaturing polyacrylamide gel electrophoresis (SDS-PAGE) and transferred to nitrocellulose membrane. […] After washing, the immune complexes were detected by the SuperSignal West Pico Chemiluminescent Substrate. The integrity of the nuclear and postnuclear subcellular fractions was determined by monitoring histone and MnSOD immunoreactivity, respectively.
To determine whether Pbm-AIF fails to bind to PAR in cultured cortical neurons, neuronal cultures were transduced by lentivirus with WT-AIF-Flag or Flag-tagged Pbm-AIF (“Pbm-AIF-Flag”). […] AIF was translocation to the nucleus for each neuron culture was monitored 2 hours after administration of NMDA (500 μM NMDA for 5 minutes). […]

Hq mice [9] = test: NMDA excitotoxicity in striatum of Hq mice
Procedure: 1 μl Lentivirus (5×1010 T.U./ml) carrying WT-AIF-Flag, Pbm-AIF-Flag, or GFP was injected into striatum on both sides of the brain (rostral, 0.4 mm; lateral+/−1.7 mm; ventral 3.5 mm from bregma), and 1 μl AAV2 (1×1013 T.U./ml) carrying WT-AIF-Flag, Pbm-AIF-Flag or GFP was injected into CA1 in hippocampi on both sides of the brain (posterior, 2.0 mm; lateral+/−1.5 mm; ventral 1.5 mm from bregma) using a stereotactic frame (Kopf) (0.02 ml/min). The needle was left in place for an additional 8 minutes after injection. One week after the first injection, 20 nmol NMDA or normal saline in 0.8 μl was injected into the right and left striatum (0.02 μl/min), respectively. The needle was left in place for an additional 8 minutes after injection. Lesion volumes were assessed at 48 hours, 60 hours, or 168 hours after NMDA administration. At the indicated time point after the second injection, the mice were deeply anesthetized, and then perfused with saline and 4% paraformaldehyde. After postfixation and freezing in 20% glycerol-PBS, brain sections (30 μm) were obtained for Nissl staining and immunohistochemistry analysis.
Applicants next assessed whether replacement of WT-AIF-Flag or Pbm-AIF-Flag through lentiviral transduction would restore the sensitivity of Hq mice to NMDA excitotoxicity. […]

[10] = tested on: mitochondria isolated from cortical neurons; test: in vitro AIF release from mitochondria of Hq cortical neurons; settings: incubation with purified PAR for 30 minutes
Procedure: as §2, §3

CC(NC(=O)C(NC(=O)OCc1ccccc1)C(C)C)C(=O)NC(CC(=O)O)C(=O)CF (stereo not drawn) [zVAD, reference compound] (Cbz-Val-Ala-Asp-CH2F; configuration not given here)
effect on MNNG-induced cell death (Hq MEFs; zVAD 100 μM): failed to influence MNNG-induced cell death in MEFs
effect on NMDA-induced cortical neuron death (Hq cortical neurons; DPQ (30 μM) or zVAD (100 μM) in addition to NMDA): did not

B1: His-Pbm-AIF: His tagged Pbm-AIF (protein, UniProt Q9Z0X1 1-612, looked up, variant R588A K589A K592A)
chain: MFRCGGLAGAFKQKLVPLVRTVYVQRPKQRNRLPGNLFQQWRVPLELQMARQMASSGSSGGKMDNSVLVLIVGLSTIGAGAYAYKTIKEDQKRYNERVMGLGLSPEEKQRRAIASATEGGSVPQIRAPSHVPFLLIGGGTAAFAAARSIRARDPGARVLIVSEDPELPYMRPPLSKELWFSDDPNVTKTLQFRQWNGKERSIYFQPPSFYVSAQDLPNIENGGVAVLTGKKVVHLDVRGNMVKLNDGSQITFEKCLIATGGTPRSLSAIDRAGAEVKSRTTLFRKIGDFRALEKISREVKSITVIGGGFLGSELACALGRKSQASGIEVIQLFPEKGNMGKILPQYLSNWTMEKVKREGVKVMPNAIVQSVGVSGGRLLIKLKDGRKVETDHIVTAVGLEPNVELAKTGGLEIDSDFGGFRVNAELQARSNIWVAGDAACFYDIKLGRRRVEHHDHAVVSGRLAGENMTGAAKPYWHQSMFWSDLGPDVGYEAIGLVDSSLPTVGVFAKATAQDNPKSATEQSGTGIRSESETESEASEITIPPSAPAVPQVPVEGEDYGKGVIFYLRDKVVVGIVLWNVFNRMPIAAAIIADGEQHEDLNEVAKLFNIHED
modifications: full-length His tag
PAR binding in saturation binding experiments (PAR [1]): much less (and virtually linear) binding
NADH oxidase activity [2]: no significant change in NADH oxidase activity
FAD binding properties [3]: no significant difference
DNA-binding properties (DNA): comparable

B2: WT-AIF-Flag: C-terminal Flag-tagged mouse wild type AIF, delivered by lentivirus, AAV2 or transfection (protein, UniProt Q9Z0X1 1-612, looked up)
chain: B1 chain with A588R, A589K, A592K
modifications: full-length C-terminal Flag tag
notes: C-terminal Flag-tagged mouse wild type AIF, delivered by lentivirus, AAV2 or transfection
nuclear translocation after MNNG (HeLa cells): translocated to the nucleus 4 hours following MNNG treatment
effect on MNNG-induced cell death (Hq MEFs; Hq MEFs): restored their susceptibility to MNNG toxicity
PAR-induced release from mitochondria [4]: induced the release
CA1 lesion volume (Hq mice [5]): large lesion volume
translocation to the nucleus after staurosporine ([6]; 100 nM staurosporine, 24 hours): translocate from the mitochondria to the nucleus
translocation to the nucleus after NMDA ([6]; two hours after NMDA (500 μM, 5 minutes), immunoblot of fractions or confocal image analysis): translocated to the nucleus; also recorded: observed in the nucleus
change of interaction with PAR following MNNG treatment (PAR [7]; 2 hours after MNNG 50 μM for 15 min): significantly increased
co-immunoprecipitation with PAR (PAR [7]; postnuclear fractions, non-MNNG- and MNNG-treated HeLa cells): co-immunoprecipitated with PAR in resting cells
change of interaction with PAR following NMDA treatment (PAR [8]; 2 hours after 500 μM NMDA for 5 minutes): significantly increased
co-immunoprecipitation with PAR (PAR [8]; postnuclear fractions, non-NMDA- and NMDA-treated cultures): pulled down
sensitivity to NMDA excitotoxicity (lesion volume) (Hq mice [9]; lentivirus in striatum, NMDA 20 nmol, 48 hours or 60 hours): restored sensitivity to NMDA excitotoxicity
survival after the NMDA injection (Hq mice [9]; lentivirus-injected Hq mice, WT-AIF-Flag with one exception): < 168 h
PAR-induced release from mitochondria [10]: induced the release
effect on susceptibility to NMDA excitotoxicity (Hq cortical neurons; lentivirus-transduced Hq cortical neurons, NMDA 500 μM for 5 min, 24, 36, 48 hours): restored Hq cortical neuron susceptibility to NMDA excitotoxicity
